Measurements as given in article PMC13028475.

Target: FPM13 (Francisella Periplasmic Metalloprotein, 13 kDa), native protein of Francisella novicida (Francisella novicida)
Test: cryo-EM structure

“FPM13 (Francisella Periplasmic Metalloprotein, 13 kDa), native protein of Francisella novicida (natural protein)” showed a stoichiometry N of 18.
